Reference: the supplement of paper PMC10065799, “High-throughput profiling of sequence recognition by tyrosine kinases and SH2 domains using bacterial peptide display” (eLife, 2023)

Tests used:
Grb2 SH2 = Grb2 SH2 (UniProt P62993); experiment: SH2 binding enrichment of the phosphorylated peptide, bacterial display (enrichment ratio); higher = better substrate or ligand; peptides without Tyr show the background
SHP2-C SH2 = experiment: as above
c-Src SH2 = experiment: as above
c-Abl (mouse) = experiment: phosphorylation enrichment, bacterial display (enrichment ratio); higher = better substrate or ligand; peptides without Tyr show the background
AncSZ = experiment: as above
Jak2 = Jak2 (UniProt O60674); experiment: as above
Jak2, sequence (O60674 whole entry, looked up): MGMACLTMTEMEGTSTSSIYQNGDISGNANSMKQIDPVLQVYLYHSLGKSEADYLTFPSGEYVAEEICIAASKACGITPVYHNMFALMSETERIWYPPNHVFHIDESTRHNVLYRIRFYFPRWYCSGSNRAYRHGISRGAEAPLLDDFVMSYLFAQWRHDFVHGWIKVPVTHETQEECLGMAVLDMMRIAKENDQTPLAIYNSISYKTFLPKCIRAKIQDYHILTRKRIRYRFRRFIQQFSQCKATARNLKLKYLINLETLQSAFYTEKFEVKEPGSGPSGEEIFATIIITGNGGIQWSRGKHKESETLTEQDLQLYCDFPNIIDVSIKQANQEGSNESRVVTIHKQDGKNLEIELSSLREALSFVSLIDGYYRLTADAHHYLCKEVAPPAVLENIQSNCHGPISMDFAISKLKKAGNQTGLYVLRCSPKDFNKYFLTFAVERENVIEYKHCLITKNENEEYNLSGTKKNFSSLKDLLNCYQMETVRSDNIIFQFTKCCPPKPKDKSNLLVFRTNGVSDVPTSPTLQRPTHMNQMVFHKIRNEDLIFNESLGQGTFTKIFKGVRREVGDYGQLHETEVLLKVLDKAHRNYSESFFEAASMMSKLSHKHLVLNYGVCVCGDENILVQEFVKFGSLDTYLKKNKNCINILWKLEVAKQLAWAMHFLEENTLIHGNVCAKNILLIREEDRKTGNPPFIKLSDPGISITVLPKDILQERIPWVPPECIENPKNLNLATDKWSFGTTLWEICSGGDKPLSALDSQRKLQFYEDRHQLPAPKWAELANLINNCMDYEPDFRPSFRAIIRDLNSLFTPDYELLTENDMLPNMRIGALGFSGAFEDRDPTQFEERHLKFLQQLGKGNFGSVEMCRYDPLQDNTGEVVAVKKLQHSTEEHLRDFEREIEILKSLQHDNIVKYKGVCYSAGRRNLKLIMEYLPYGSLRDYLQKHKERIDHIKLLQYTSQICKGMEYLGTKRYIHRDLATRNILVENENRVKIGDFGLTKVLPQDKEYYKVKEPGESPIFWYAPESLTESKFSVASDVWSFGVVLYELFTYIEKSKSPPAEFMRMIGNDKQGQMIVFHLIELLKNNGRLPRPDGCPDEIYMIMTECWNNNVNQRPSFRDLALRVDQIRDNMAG

FGFR3 = FGFR3 (UniProt P22607); experiment: as above
FGFR3, sequence (P22607 whole entry, looked up): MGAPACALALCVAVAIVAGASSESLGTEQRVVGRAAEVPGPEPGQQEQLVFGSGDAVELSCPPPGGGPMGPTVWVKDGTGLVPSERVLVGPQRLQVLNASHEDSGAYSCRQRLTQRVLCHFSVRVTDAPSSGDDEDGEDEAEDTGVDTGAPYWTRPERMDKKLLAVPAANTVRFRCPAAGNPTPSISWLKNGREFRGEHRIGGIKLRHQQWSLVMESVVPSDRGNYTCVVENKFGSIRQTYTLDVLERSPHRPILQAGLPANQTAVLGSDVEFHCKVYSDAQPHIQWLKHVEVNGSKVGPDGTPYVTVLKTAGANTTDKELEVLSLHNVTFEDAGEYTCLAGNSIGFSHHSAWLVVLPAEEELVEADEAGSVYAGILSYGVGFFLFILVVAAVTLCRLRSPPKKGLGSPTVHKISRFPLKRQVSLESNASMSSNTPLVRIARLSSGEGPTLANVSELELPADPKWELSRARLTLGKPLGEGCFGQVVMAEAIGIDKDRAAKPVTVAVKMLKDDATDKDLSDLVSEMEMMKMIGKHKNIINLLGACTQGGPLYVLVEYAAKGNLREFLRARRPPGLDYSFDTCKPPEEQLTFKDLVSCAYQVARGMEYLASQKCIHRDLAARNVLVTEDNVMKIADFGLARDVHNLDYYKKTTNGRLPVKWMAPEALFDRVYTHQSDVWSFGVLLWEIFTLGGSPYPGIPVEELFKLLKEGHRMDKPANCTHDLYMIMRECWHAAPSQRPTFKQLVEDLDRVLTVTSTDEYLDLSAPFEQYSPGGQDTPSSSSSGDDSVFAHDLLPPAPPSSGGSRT

EPHB1 = EPHB1 (UniProt P54762); experiment: as above
EPHB1, sequence (P54762 whole entry, looked up): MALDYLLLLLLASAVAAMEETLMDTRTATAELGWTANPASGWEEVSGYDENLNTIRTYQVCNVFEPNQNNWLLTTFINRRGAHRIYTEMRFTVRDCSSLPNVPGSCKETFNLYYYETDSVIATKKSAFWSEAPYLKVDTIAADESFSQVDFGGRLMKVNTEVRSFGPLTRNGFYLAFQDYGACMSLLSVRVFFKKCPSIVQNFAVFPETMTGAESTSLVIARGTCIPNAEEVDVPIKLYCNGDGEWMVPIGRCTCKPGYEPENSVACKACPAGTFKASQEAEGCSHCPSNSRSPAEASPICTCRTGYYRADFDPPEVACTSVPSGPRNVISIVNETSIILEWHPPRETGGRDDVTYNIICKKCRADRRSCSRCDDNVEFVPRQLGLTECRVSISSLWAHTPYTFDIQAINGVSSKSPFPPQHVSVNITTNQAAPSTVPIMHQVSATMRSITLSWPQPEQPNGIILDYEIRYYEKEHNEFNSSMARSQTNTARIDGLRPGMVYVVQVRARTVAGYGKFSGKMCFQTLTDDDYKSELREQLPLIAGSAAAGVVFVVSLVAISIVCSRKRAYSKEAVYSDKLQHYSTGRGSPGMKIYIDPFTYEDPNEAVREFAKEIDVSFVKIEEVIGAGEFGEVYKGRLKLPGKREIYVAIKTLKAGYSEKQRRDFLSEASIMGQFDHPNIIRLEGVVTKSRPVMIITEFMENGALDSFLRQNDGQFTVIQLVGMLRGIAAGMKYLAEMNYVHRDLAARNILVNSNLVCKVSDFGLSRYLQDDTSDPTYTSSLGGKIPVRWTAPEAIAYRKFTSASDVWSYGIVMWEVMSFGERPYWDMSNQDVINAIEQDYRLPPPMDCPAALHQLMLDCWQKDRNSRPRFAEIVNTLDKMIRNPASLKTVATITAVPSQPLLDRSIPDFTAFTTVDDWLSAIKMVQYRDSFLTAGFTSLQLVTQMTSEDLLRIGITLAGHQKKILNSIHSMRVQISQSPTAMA

Fer (mouse) = experiment: as above
Hck = Hck (UniProt P08631); experiment: as above
Fyn = Fyn (UniProt P06241); experiment: as above
Fyn, sequence (P06241 whole entry, looked up): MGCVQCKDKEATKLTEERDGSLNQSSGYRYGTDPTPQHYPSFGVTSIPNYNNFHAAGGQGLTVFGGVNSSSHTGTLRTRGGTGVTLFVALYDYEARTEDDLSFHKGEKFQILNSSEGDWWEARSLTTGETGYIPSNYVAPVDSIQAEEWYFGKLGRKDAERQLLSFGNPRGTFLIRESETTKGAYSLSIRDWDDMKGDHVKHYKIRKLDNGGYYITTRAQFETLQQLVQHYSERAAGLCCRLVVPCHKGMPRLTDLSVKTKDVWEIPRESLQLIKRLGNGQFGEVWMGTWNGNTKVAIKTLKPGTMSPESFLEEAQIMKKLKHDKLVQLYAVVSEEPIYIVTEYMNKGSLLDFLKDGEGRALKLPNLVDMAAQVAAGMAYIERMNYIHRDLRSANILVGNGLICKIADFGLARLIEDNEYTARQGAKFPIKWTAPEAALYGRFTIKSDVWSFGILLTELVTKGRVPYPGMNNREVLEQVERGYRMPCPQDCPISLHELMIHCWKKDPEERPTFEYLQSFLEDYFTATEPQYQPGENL

MERTK = MERTK (UniProt Q12866); experiment: as above
MERTK, sequence (Q12866 whole entry, looked up): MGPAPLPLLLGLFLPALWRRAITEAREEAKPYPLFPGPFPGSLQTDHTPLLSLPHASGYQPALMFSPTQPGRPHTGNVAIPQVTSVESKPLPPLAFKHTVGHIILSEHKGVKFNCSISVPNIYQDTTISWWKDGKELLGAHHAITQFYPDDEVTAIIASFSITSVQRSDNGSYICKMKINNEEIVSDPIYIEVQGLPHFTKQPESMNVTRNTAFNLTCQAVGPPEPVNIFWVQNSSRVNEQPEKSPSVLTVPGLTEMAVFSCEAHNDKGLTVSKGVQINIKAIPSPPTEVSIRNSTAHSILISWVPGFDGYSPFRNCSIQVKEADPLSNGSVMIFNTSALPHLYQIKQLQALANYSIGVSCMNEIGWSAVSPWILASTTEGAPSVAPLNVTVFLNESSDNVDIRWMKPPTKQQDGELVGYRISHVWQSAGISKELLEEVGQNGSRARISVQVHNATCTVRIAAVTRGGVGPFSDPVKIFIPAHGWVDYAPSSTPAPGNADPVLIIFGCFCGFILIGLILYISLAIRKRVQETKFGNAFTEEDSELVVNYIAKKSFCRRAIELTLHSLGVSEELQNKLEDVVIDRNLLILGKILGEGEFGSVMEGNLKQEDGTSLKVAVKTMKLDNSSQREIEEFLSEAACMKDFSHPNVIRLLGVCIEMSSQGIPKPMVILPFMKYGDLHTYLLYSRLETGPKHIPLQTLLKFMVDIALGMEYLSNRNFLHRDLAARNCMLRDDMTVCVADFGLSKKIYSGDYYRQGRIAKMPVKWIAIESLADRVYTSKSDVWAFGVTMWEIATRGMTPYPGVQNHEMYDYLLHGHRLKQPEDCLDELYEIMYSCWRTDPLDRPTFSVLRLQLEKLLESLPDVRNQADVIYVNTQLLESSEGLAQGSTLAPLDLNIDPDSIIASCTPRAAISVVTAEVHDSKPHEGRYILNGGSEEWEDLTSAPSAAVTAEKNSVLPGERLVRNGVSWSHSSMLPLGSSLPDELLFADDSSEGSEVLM

FGFR1 = FGFR1 (UniProt P11362); experiment: as above
EPHB2 = EPHB2 (UniProt P29323); experiment: as above
Fes = Fes (UniProt P07332); experiment: as above
c-Src = experiment: as above
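For SH2 binding enrichment of the phosphorylated peptide, bacterial display in this document: peptide library displayed on the E. coli surface as eCPX fusions, selected cells deep-sequenced, score is each peptide's frequency after selection divided by its frequency in the input.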
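For phosphorylation enrichment, bacterial display in this document: 11-residue human phosphosite peptides and single-mutation variants displayed on the E. coli surface, counted by deep sequencing, each peptide's frequency after selection divided by its frequency in the unselected input library; frequency after pTyr selection over input frequency; kinase dosed for 20-30% of maximal phosphorylation in three min.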

Grb2 SH2, sequence (P62993 whole entry, looked up): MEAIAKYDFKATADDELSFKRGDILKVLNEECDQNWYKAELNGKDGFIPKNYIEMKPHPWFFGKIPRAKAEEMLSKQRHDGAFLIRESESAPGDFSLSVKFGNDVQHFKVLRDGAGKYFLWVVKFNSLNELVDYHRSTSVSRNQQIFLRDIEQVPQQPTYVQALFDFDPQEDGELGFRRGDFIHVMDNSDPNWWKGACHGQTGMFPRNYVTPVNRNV

Row | Sequence | SH2 binding enrichment (Grb2 SH2) | SH2 binding enrichment (SHP2-C SH2) | SH2 binding enrichment (c-Src SH2) | phosphorylation enrichment (c-Abl (mouse)) | phosphorylation enrichment (AncSZ) | phosphorylation enrichment (Jak2) | phosphorylation enrichment (FGFR3) | phosphorylation enrichment (EPHB1) | phosphorylation enrichment (Fer (mouse)) | phosphorylation enrichment (Hck) | phosphorylation enrichment (Fyn) | phosphorylation enrichment (MERTK) | phosphorylation enrichment (FGFR1) | phosphorylation enrichment (EPHB2) | phosphorylation enrichment (Fes) | phosphorylation enrichment (c-Src)
1 | VDDEIYFFRKP [PBRM1_Y1289_YF] | 0.75 | 0.661 | 0.466 | 1.35 | 2.12 | 1.25 | 1.32 | 0.693 | 0.652 | 5.24 | 6.18 | 0.796 | 1.32 | 0.635 | 1.4 | 5.57
2 | RHLQEYQDPLN [GFAP_Y349_L352P] | 0.949 | 0.842 | 0.645 | 0.753 | 0.823 | 0.878 | 0.668 | 0.504 | 0.472 | 0.517 | 0.579 | 0.576 | 0.723 | 0.739 | 0.959 | 0.503
3 | EMFNPYFGLFE [NEDD4L_Y679_YF] | 1.53 | 1.1 | 0.743 | 1.14 | 1.52 | 8.21 | 1.68 | 2.32 | 2.66 | 6.01 | 7.38 | 3.52 | 1.94 | 1.88 | 1.21 | 7.31
4 | KNSFKYYMSDD [ATRX_Y203_C200S] | 0.848 | 0.661 | 0.708 | 0.671 | 0.92 | 0.947 | 0.604 | 0.507 | 0.405 | 0.477 | 0.468 | 0.479 | 0.486 | 0.531 | 1.02 | 0.44
5 | RGDTVYTVNRM [KBTBD13_Y404] | 1.09 | 0.655 | 0.423 | 1.06 | 1.05 | 0.834 | 1.21 | 0.825 | 0.83 | 1.61 | 5.2 | 0.808 | 0.824 | 0.441 | 1.35 | 4.93
6 | PAIERYVVVCK [RHO_Y136_L131P] | 0.857 | 0.751 | 0.686 | 0.928 | 1.08 | 1.08 | 0.851 | 0.896 | 0.473 | 0.551 | 0.612 | 0.374 | 0.505 | 0.846 | 1.41 | 0.474
7 | YISLIYTNYEA [GSTP1_Y109] | 1.24 | 1.53 | 1.75 | 1.31 | 1.68 | 1.23 | 3.6 | 1.7 | 1.72 | 2.83 | 3.72 | 3.44 | 4.5 | 1.71 | 1.23 | 4.21
8 | ANAYIYVVQLP [L1CAM_Y420] | 1.37 | 1.44 | 0.814 | 0.734 | 1.33 | 1.14 | 1.18 | 0.875 | 0.478 | 0.714 | 0.841 | 1.53 | 1.25 | 0.735 | 1.17 | 1.04
9 | GRKTLYSFFSP [UNG_Y8_Q4R] | 1.57 | 0.978 | 1.17 | 0.56 | 0.529 | 0.91 | 0.641 | 0.709 | 3.82 | 2.26 | 1.13 | 12 | 0.571 | 0.603 | 0.825 | 1.9
10 | LSQQVYRVNLS [FAT4_Y480_F475L] | 0.764 | 0.67 | 0.422 | 0.637 | 0.821 | 0.647 | 0.631 | 0.532 | 0.572 | 0.521 | 0.616 | 0.792 | 0.428 | 0.622 | 0.751 | 0.836
11 | NKEPRYQEEPP [TJP2_Y479_D482E] | 1.07 | 0.644 | 0.568 | 0.907 | 1.1 | 0.915 | 0.685 | 0.499 | 0.43 | 0.508 | 0.507 | 0.501 | 0.444 | 0.67 | 1.18 | 0.421
12 | GAEIVYKSPVV [MAPT_Y711] | 0.758 | 0.63 | 0.418 | 18.3 | 0.892 | 0.694 | 0.672 | 0.747 | 0.416 | 0.497 | 0.533 | 0.558 | 0.478 | 0.581 | 0.904 | 0.526
13 | EEGRVYVFHLS [ITGAE_Y549_R552H_YF] | 0.888 | 0.567 | 0.482 | 0.825 | 1.18 | 0.958 | 0.756 | 0.672 | 0.648 | 0.46 | 0.512 | 0.48 | 0.557 | 0.573 | 1.25 | 0.522
14 | NYYDLYGGEKF [PTPN11_Y66_D61N] | 1.16 | 0.702 | 1.84 | 0.725 | 1.48 | 1.97 | 11.7 | 10.6 | 2.32 | 5.52 | 5.82 | 7.49 | 13.4 | 12.1 | 1.03 | 4.47
15 | AEPTGYSAELS [EZR_Y499] | 0.721 | 0.525 | 0.457 | 0.799 | 1.03 | 1.08 | 0.636 | 0.513 | 0.535 | 0.616 | 0.524 | 0.485 | 0.528 | 0.583 | 1.01 | 0.488
